# Laboratory results published in paper PMC9756848.
# Assays:
# Flag-hAPRIL (human) = assay: SEC; Superdex S200 Increase HR 10/30, PBS 10 ug/ml BSA, 0.7 ml/min; proteins alone or Flag-ligand with a 20-fold mass excess of atacicept; fractions analysed by Western blot; complexes of fractions 10 and 11 concentrated and run again
# [1] = target: endogenous BAFF (human serum) (human (endogenous in serum)); assay: SEC; 300 ul serum of an atacicept-treated SLE patient (pre-dose, 4 weeks of treatment, 12 weeks after treatment end) fractionated in PBS; BAFF ELISA and non-reducing anti-TACI Western blot of the fractions
Substance,stoichiometry N (Flag-hAPRIL (human)),stoichiometry N [1]
Flag-hAPRIL (ligand),3,
endogenous BAFF (human serum) (ligand),,3
